Measured values reported in patent US20110105393A1, “METHODS FOR PROMOTING STEM CELL PROLIFERATION AND SURVIVAL” (priority 2007, published 2011).

Assays:
insulin/IGF-1 receptors = assay: Insulin/IGF-1 receptor activation in NSC cultures; type: cell-based, mouse; settings: effect of inhibitor; DAPT 1 μM
Method: (§1) Cell culture: E13.5 cortical embryonic mouse CNS stem cells were grown as previously described (Johe, et al., Genes Dev 10, 3129-40, 1996). Cells were expanded in serum-free DMEM/F12 medium with N2 supplement and FGF2 (20 ng/ml) for 5 days under 5% oxygen conditions and were re-plated fresh or from frozen stocks at 1,000-10,000 cells per cm^2. FGF2 was included throughout the studies, unless otherwise stated. Adult rat (3-6 months old) or adult mouse (2-4 months old) SVZ NSC cultures were grown in the same medium as the fetal cultures.
(§2) Pharmacological treatments: Unless otherwise stated, the following concentrations were used: Dll4 and Ang-2 (in vitro, 500 ng/ml; in vivo 12.5 μg as a single injection), FGF2 (in vitro, 20 ng/ml), JAK inhibitor (in vitro, 200 nM; in vivo, 250 ng as a single injection), insulin (in vitro, 25 μg/ml; in vivo, 40 μg as a single injection), DAPT (1 μM), Fluorogold (0.5 μg). For the survival assays, compounds were added daily and Notch ligands every 2 days for the duration of the experiment. For the effects of kinase inhibitors on Notch activation, cells were pre-incubated for 1 h prior to Notch activation.
It was previously shown that in NSCs Notch activation leads to rapid phosphorylation of Akt (Androutsellis-Theotokis, A. et al., Nature 442, 823-6, 2006), a mediator of insulin signalling (Cantley, Science 296, 1655-7, 2002). […]

Notch receptor = Notch receptor cleavage (activation) in NSC cultures; type: cell-based, mouse; settings: effect of inhibitor; DAPT 1 μM
Method: as §1, §2
It was previously shown that in NSCs Notch activation leads to rapid phosphorylation of Akt (Androutsellis-Theotokis, A. et al., Nature 442, 823-6, 2006), a mediator of insulin signalling (Cantley, Science 296, 1655-7, 2002). […] Activation of the Notch receptor by addition of insulin or Dll4 was inhibited by DAPT, a γ-secretase inhibitor that blocks Notch cleavage. […] Insulin maintained STAT3-Ser727 phosphorylation levels, and acutely (1-h) induced it following a 16-h insulin withdrawal phase (FIG. 1c).

Akt = Akt phosphorylation in NSC cultures; type: cell-based, mouse; settings: 0.5 μg/ml (FIG. 2a)
Method: as §1
(§3) Fetal NSCs in culture express Ang-1, and treatment (2 days) with Dll4 maintained it whereas CNTF reduced it. Ang-2 expression was maintained under these conditions. […] Ang-2 induced mTOR and STAT3-S727 phosphorylation, unlike Ang-1 (FIG. 2a). Ang-1, however, induced Akt phosphorylation.

NSC cultures = assay: Incidence of Tie-2 spikes in NSC cultures; type: cell-based; settings: for % of cells with at least one spike: NSC cultures; for spike number: thirty minutes after treatment
Method: A protrusion of the cell membrane was identified in neuronal stem cells (NSCs) when the Tie-2 receptor is concentrated. This can be visualized using antibodies that bind Tie-2. The protrusion was termed a spike. These spikes appear 30 minutes after treatment with pharmaceutical agents. […] increase spike number thirty minutes after treatment. […] Thus, a novel sub-cellular structure ahs been identified. These structures could regulate the responsiveness of cells to treatments.
Thus, a novel protrusion of the cell membrane in NSCs has been identified where the Tie-2 receptor is concentrated. This can be easily visualized using an antibody against Tie-2 that recognizes a particular epitope. […] Indeed, the spike is devoid of actin filaments or tubulin. The spikes can be detected within thirty minutes of contacting the cultures with an the factors. Thus, the spikes provide a rapid assay for the effect of pharmacologic agents.

mTOR = mTOR phosphorylation in NSC cultures (Western blot); type: cell-based, mouse; settings: NSC cultures, 0.5 μg/ml (FIG. 2a, Example 3)
Method: as §1, §3
Three characterized Tie-2 receptor antibodies were used to determine if the Tie-2 receptor was expressed in the immature neural precursor cells found in the SVZ of the adult brain. When ligand is bound, the Tie-2 receptor becomes phosphorylated. An antibody that recognizes the activated receptor (RnD Systems, AF2720) and another antibody that binds to a distinct site (Santa Cruz, sc-324) identified many positive cells in the subventricular zone of the adult rat brain. In regions that were more distant from the ventricle, Tie-2 was expressed predominantly on blood vessels and endothelial cells reacted with antibodies against the activated receptor. Precursor cells that proliferate in vitro can be readily derived from the fetal and adult brain. The homogeneity of these cell populations in attached culture and their potential to generate neurons and glia is supported by clonal analysis. […] This colony number assay measured the survival of precursor cells that could differentiate into neurons and glia (See, Table 1).

Hes3 = Hes3 protein immuno-staining in fetal NSC cultures; type: cell-based, mouse; settings: 2 day treatment
Method: as §1
Hes3 mRNA is present in fetal NSC cultures under conditions that support their self-renewal but CNTF-induced differentiation (Bonni, A. et al., Science 278, 477-83, 1997; Rajan & McKay, J Neurosci 18, 3620-9, 1998): downregulates Hes3 message (Androutsellis-Theotokis, A. et al., Nature 442, 823-6, 2006). Knockout studies have shown a role of Hes3 in self-renewal (Hatakeyama, J. et al., Development 131, 5539-50, 2004). It was investigated if Hes3 mediates stem cell functions in vitro to assess its use as a functional NSC marker. Fetal (E13.5) cortical tissue was dissociated and magnetic sorting was used to isolate a cell population that expressed AC133, an established marker of NSCs (Uchida, N. et al., Proc Natl Acad Sci USA 97, 14720-5, 2000). […]

Ang-1 = Ang-1 expression in fetal NSC cultures; type: cell-based, mouse; settings: fetal NSCs in culture, treatment 2 days
Method: as §1, §3

Q: What does the source list for `C[C@H](NC(=O)Cc1cc(F)cc(F)c1)C(=O)N[C@H](C(=O)OC(C)(C)C)c1ccccc1` [DAPT, reference compound]?
A: Activation of the insulin/IGF-1 receptors by insulin treatment (insulin/IGF-1 receptors): partly blocked; Activation of the Notch receptor by addition of insulin or Dll4 (Notch receptor): inhibited

B1: Ang-1: human angiopoietin-1 (923-AN) from R&D (protein, UniProt Q15389 16-498, looked up)
Angiopoietin-1: HIGCSNQRRSPENSGRRYNRIQHGQCAYTFILPEHDGNCRESTTDQYNTNALQRDAPHVEPDFSSQKLQHLEHVMENYTQWLQKLENYIVENMKSEMAQIQQNAVQNHTATMLEIGTSLLSQTAEQTRKLTDVETQVLNQTSRLEIQLLENSLSTYKLEKQLLQQTNEILKIHEKNSLLEHKILEMEGKHKEELDTLKEEKENLQGLVTRQTYIIQELEKQLNRATTNNSVLQKQQLELMDTVHNLVNLCTKEGVLLKGGKREEEKPFRDCADVYQAGFNKSGIYTIYINNMPEPKKVFCNMDVNGGGWTVIQHREDGSLDFQRGWKEYKMGFGNPSGEYWLGNEFIFAITSQRQYMLRIELMDWEGNRAYSQYDRFHIGNEKQNYRLYLKGHTGTAGKQSSLILHGADFSTKDADNDNCMCKCALMLTGGWWFDACGPSNLNGMFYTAGQNHGKLNGIKWHYFKGPSYSLRSTTMMIRPLDF
Q: What does the source list for B1?
A: Akt phosphorylation (Akt): induced; % of cells with at least one spike (NSC cultures): 0.8%; spike number (NSC cultures): do not increase; mTOR phosphorylation (mTOR): inhibits

B2: CNTF: CNTF (577-NT) from R&D; induces differentiation of NSCs (protein, UniProt P26441 1-200, looked up)
Ciliary neurotrophic factor: MAFTEHSPLTPHRRDLCSRSIWLARKIRSDLTALTESYVKHQGLNKNINLDSADGMPVASTDQWSELTEAERLQENLQAYRTFHVLLARLLEDQQVHFTPTEGDFHQAIHTLLLQVAAFAYQIEELMILLEYKIPRNEADGMPINVGDGGLFEKKLWGLKVLQELSQWTVRSIHDLRFISSHQTGIPARGSHYIANNKKM
Q: B2 was tested. Which Hes3 protein expression (Hes3) did it give?
A: lost

Q: What about the “% of cells with at least one spike” value (NSC cultures) of the same molecule?
A: 0.8%

Q: What about the spike number (NSC cultures) of the same molecule?
A: do not increase

Q: What about the Ang-1 expression (Ang-1) of the same molecule?
A: reduced
